Where two headings read alike, the source gives them in different places. Each block holds one binder with its values, some of them ahead of it.
Legend:
human PD-1 [1] = target: T1, human PD-1 (human, UniProt Q15116 25-288); assay: cell-based or functional assay
IL-2Rβ/γ on M07e cells = target: T2, IL-2Rβ/γ on M07e cells (human, UniProt P14784 27-551; P31785 23-369); assay: cell-based or functional assay
T2 sequence (looked up) 1: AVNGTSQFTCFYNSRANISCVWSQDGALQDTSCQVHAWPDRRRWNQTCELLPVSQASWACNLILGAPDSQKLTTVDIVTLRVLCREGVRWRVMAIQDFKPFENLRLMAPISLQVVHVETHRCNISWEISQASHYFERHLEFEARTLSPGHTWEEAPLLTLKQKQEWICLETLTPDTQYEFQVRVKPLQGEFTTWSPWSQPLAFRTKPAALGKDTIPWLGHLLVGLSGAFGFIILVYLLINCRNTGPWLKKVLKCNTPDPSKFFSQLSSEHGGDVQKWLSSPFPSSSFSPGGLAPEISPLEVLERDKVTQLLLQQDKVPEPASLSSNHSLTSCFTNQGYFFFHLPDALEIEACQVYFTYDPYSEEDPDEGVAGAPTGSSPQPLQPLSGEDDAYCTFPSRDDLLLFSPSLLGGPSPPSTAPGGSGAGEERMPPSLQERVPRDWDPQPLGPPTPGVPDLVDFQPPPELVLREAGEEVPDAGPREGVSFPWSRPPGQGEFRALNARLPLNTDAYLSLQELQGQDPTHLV
T2 sequence (looked up) 2: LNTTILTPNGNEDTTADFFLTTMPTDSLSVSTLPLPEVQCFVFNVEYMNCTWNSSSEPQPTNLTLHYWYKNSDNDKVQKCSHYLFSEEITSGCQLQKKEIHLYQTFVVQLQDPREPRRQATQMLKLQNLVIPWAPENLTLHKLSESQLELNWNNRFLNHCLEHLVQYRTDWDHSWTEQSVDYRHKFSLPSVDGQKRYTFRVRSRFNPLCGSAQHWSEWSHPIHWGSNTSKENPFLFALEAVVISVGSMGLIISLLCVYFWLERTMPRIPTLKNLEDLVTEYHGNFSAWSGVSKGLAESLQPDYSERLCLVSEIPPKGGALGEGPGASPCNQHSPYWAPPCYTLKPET

human PD-1 [2] = target: T1, human PD-1; assay: cell-based or functional assay; remark: listed apart in the source
human PD-1 [3] = target: T1, human PD-1; assay: cell-based or functional assay; remark: listed apart in the source
[4] = target: T3, human IL-2Rα receptor protein (Sino Biological, 10165-H08H) (human, UniProt P01589 22-213); assay: SPR Biacore 8K, fusion protein captured by anti-human IgG (Fc), IL-2Rα as analyte
T3 construct: also called CD25
T3 sequence (looked up): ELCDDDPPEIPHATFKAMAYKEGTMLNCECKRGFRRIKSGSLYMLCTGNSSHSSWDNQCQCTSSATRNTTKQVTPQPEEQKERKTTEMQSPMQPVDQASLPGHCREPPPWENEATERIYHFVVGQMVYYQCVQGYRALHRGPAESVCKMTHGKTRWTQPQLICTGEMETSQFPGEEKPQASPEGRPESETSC

[5] = target: T4, human IL-2Rβ/γ receptor heterodimer protein (Acrosystem, ILG-H5283) (human, UniProt P14784 27-239; P31785 23-262, limits assumed); assay: SPR Biacore 8K, fusion protein captured by anti-human IgG (Fc), human IL-2Rβ/γ heterodimer as analyte
T4 sequence (looked up) 1: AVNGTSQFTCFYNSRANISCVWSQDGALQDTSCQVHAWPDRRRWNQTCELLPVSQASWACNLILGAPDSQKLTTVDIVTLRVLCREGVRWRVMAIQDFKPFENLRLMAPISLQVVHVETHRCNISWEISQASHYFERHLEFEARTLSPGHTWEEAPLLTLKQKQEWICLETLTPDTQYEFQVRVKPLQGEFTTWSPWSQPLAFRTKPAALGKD
T4 sequence (looked up) 2: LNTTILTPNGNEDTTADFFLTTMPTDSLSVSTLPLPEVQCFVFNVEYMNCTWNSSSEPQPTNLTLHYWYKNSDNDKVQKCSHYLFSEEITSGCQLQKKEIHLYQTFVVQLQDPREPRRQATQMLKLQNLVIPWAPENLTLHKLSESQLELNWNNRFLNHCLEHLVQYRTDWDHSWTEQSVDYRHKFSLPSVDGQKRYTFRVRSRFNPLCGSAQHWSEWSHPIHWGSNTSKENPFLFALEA

[6] = target: Human PD-1 antigen protein (Sino Biological, 10377-H08H) (human, UniProt Q15116 25-167); assay: SPR Biacore 8K, fusion protein captured by anti-human IgG (Fc), human PD-1 as analyte
human PD-1 [7] = target: T1, human PD-1; assay: cell-based or functional assay; remark: listed apart in the source
human PD-1 [8] = target: T1, human PD-1; assay: flow cytometry on Jurkat cells overexpressing human PD-1
[9] = target: T5, Human PD-1 protein (His Tag) (human, UniProt Q15116 25-167); assay: ELISA, plate coated with human PD-1 (his tag), anti-human IgG4 Fc-HRP
T5 construct: also called PD1-H5221; PD-1 antigen; not shown: His tag
T5 sequence (Q15116 25-167): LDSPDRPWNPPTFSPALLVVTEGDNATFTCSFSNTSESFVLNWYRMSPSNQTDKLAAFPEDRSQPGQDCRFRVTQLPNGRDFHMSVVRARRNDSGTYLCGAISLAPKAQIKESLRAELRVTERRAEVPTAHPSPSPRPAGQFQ

Human PD-1 antigen protein (Sino Biological, 10377-H08H), sequence (Q15116 25-167 limits assumed): as the sequence (Q15116 25-167) above
T1 sequence (Q15116 25-288 limits assumed): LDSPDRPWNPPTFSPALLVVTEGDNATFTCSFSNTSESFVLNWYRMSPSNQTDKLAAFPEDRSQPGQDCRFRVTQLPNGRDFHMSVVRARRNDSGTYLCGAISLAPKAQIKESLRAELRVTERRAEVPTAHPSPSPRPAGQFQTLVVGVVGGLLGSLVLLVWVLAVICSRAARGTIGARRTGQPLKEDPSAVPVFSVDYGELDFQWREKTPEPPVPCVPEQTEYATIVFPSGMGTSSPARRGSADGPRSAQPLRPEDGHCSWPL

M07e-hPD-1 cell proliferation ratio (%) at 0.0001 nM (human PD-1 [1]): 4%
M07e-hPD-1 cell proliferation ratio (%) at 0.001 nM (human PD-1 [1]): 8.1%
M07e-hPD-1 cell proliferation ratio (%) at 0.01 nM (human PD-1 [1]): 29.3%
M07e-hPD-1 cell proliferation ratio (%) at 0.1 nM (human PD-1 [1]): 99.5%
M07e-hPD-1 cell proliferation ratio (%) at 1 nM (human PD-1 [1]): 112%
M07e-hPD-1 cell proliferation ratio (%) at 10 nM (human PD-1 [1]): 107%
M07e-hPD-1 cell proliferation ratio (%) at 100 nM (human PD-1 [1]): 105%
M07e-hPD-1 cell proliferation ratio (%) at 1000 nM (human PD-1 [1]): 100%
M07e cell proliferation activity (%) at 0.46 nM (IL-2Rβ/γ on M07e cells): 0.1%
M07e cell proliferation activity (%) at 1.4 nM (IL-2Rβ/γ on M07e cells): 3.6%
M07e cell proliferation activity (%) at 4.1 nM (IL-2Rβ/γ on M07e cells): 28.1%
M07e cell proliferation activity (%) at 12 nM (IL-2Rβ/γ on M07e cells): 41.6%
M07e cell proliferation activity (%) at 37 nM (IL-2Rβ/γ on M07e cells): 71.7%
M07e cell proliferation activity (%) at 111 nM (IL-2Rβ/γ on M07e cells): 87.2%
M07e cell proliferation activity (%) at 333 nM (IL-2Rβ/γ on M07e cells): 89.8%
M07e cell proliferation activity (%) at 1000 nM (IL-2Rβ/γ on M07e cells): 100%
M07e-hPD-1 cell proliferation activity (%) at 0.0001 nM (human PD-1 [2]): 1%
M07e-hPD-1 cell proliferation activity (%) at 0.001 nM (human PD-1 [2]): 3%
M07e-hPD-1 cell proliferation activity (%) at 0.01 nM (human PD-1 [2]): 28%
M07e-hPD-1 cell proliferation activity (%) at 0.1 nM (human PD-1 [2]): 87%
M07e-hPD-1 cell proliferation activity (%) at 1 nM (human PD-1 [2]): 99%
M07e-hPD-1 cell proliferation activity (%) at 10 nM (human PD-1 [2]): 98%
M07e-hPD-1 cell proliferation activity (%) at 100 nM (human PD-1 [2]): 102%
M07e-hPD-1 cell proliferation activity (%) at 1000 nM (human PD-1 [2]): 100%
M07e-hPD-1 cell proliferation ratio (%) at 0.0001 nM (human PD-1 [3]): 2.4%
M07e-hPD-1 cell proliferation ratio (%) at 0.001 nM (human PD-1 [3]): 4.9%
M07e-hPD-1 cell proliferation ratio (%) at 0.01 nM (human PD-1 [3]): 33.7%
M07e-hPD-1 cell proliferation ratio (%) at 0.1 nM (human PD-1 [3]): 79%
M07e-hPD-1 cell proliferation ratio (%) at 1 nM (human PD-1 [3]): 95.9%
M07e-hPD-1 cell proliferation ratio (%) at 10 nM (human PD-1 [3]): 113%
M07e-hPD-1 cell proliferation ratio (%) at 100 nM (human PD-1 [3]): 112%
M07e-hPD-1 cell proliferation ratio (%) at 1000 nM (human PD-1 [3]): 100%
binding result [4]: no binding
Kd [5]: 0.253 nM
koff [5]: 2.23e-05 s⁻¹
kon [5]: 88100 M⁻¹ s⁻¹
Kd [6]: 19.4 nM
koff [6]: 0.00182 s⁻¹
kon [6]: 93700 M⁻¹ s⁻¹
B1: A-PC (Fc fusion)
chain (part 1 of 2): EVQLVESGGGLVQPGGSLRLSCAASGLTFSDYSMSWYRQAPGKGRELVAIISGSGVITHYVDSVKGRFTISRDNAKNTLYLQMRSLRAEDTAVYYCRAVSDWEDYWGQGTQVTVSS
chain (part 2 of 2): GGGGSGGGGSGGGGSAPASSSTKKTQLQLEHLLLDLQMILQGISNYKNPKLTRMLTAKFYMPKKATELKHLQCLEEELKPLEEVLQGAQSKNFHLRPRDLISNINVIVLELKGSETTFMCEYADETATIVEFLNRWITFAQSIISTLT
chain: EVQLVESGGGLVQPGGSLRLSCAASGLTFSDYSMSWYRQAPGKGRELVAIISGSGVITHYVDSVKGRFTISRDNAKNTLYLQMRSLRAEDTAVYYCRAVSDWEDYWGQGTQVTVSS
notes: also called positive control molecule A-PC; PD-1-IL-2v; not shown: IgG1 hinge (C220S) + Fc Knob chain (L234A, L235A, S354C, T366W, EU); D356/L358 or E356/M358 ver; IgG1 hinge (C220S) + Fc Hole chain (L234A, L235A, Y349C, T366S, L368A, Y407V; may have H435R, Y436F; EU)

IC50, PD-1/PD-L1 NFAT reporter gene system (human PD-1 [7]): 1.2 nM
EC50 (human PD-1 [8]): 0.357 nM
EC50 [9]: 0.061 nM
B2: A17_hIgG4 (antibody, V domains shown)
VH: EVQVVESGGGLVQPGGSLRLSCVASGLTFSDYSMSWYRQAPGKERELVAIISGSGVIAHYVDSVKGRFTISRDNAKSTVYLQMVSLKPEDRGVYYCRAVSDWDDYWGQGTQVTVSS

IC50, PD-1/PD-L1 NFAT reporter gene system (human PD-1 [7]): 1.35 nM
EC50 (human PD-1 [8]): 1.09 nM
EC50 [9]: 0.0861 nM
B3: A6_hIgG4 (antibody, V domains shown)
VH: EVQLVESGGGLVQAGGSLRLSCAVSGRTFSSAAMGWFRQAPGKEREFVAAISWSFGSTYYADSVKGRFTISRDNAKNTVYLQMNSLKPEDTAVYYCAADPSIETMGGGWDYWGQGTQVTVSS
